The subject of series [1] is primary mouse hepatocytes. In words: Toxicological study: LDH level in culture media of primary mouse hepatocytes. It is filed as cell-based. To be noted: Compounds CDE (150, 300 ppb), insulin (10, 100 nM) or both; 24 hours serum-containing + 6 hours. The protocol: (§1) The overnight-acclimated hepatocytes were washed twice with PBS (to remove any residual FBS and other additives in the TRL hepatocyte maintenance medium, pretreated with control (water) or selenium Compounds CDE (150 or 300 ppb of each selenium compound) in DMEM/F12 media supplemented with 10% fetal bovine serum (FBS) for 24 hr. These cells were then washed twice with PBS and incubated with the same dose of selenium Compounds CDE (150 or 300 ppb) in the presence or absence of insulin (10 or 100 nM, Sigma), 0.1 mM 8-CPT (Sigma) or 0.5 μM Dex (Sigma) in serum-free and glucose-free DMEM media (Invitrogen) supplemented with 20 mM lactose (Sigma) and 2 mM pyruvate (Sigma) and 15 mM HEPES (Sigma) for another 6 hours. […]
Similar to the above glucose assay, cell culture media from the above described treatments were collected and centrifuged at 300×g for 5 minutes to remove any potential dislodged hepatocytes and subjected to LDH analysis using a […] (Abcam) according to the manufacturer protocol. In brief, the absorbance at OD450 nm in LDH standards and the culture medium samples after incubation with LDH substrates for every two minutes up to 40 minutes were determined by the Bio-Tek microplate reader. […]

For series [2], the system named is Foxo3. In words: Western blot of pFoxo3T32 in primary mouse hepatocytes. The series is classed as cell-based. Conditions: 100 nM insulin 6 hours, or Compounds CDE both doses 24 hours + 6 hours. How it is done: as §1
After the above described treatments, primary mouse hepatocytes were rinsed with ice-cold PBS and lysed in the ice-cold RIPA buffer containing complete proteinase and phosphatase inhibitors (Thermo-Fisher Scientific, Waltham, Mass.) on ice for 30 min Cell lysates were collected using a cell scraper and transfer pipette and then centrifuged at 12000×g for 30 min at 4° C. to remove the DNA pellet and obtain the protein extract. Protein levels in the supernatant of these cell lysates were determined using the Pierce Micro-BCA protein assay kit (Thermo Scientific-Piece Biotechnology, Rockford, Ill.) according to the manufacturer's protocol. […]

As to “insulin: insulin (10 or 100 nM, Sigma) used as comparator and cotreatment”, the “LDH levels in the media” value in series [1] is recorded as “did not cause a significant increase of LDH levels”. In addition, the “pFoxo3T32 protein level (in words)” value in series [2] is on record as “significant increase”.

The values are drawn from US9642874B2, “Compositions of selenoorganic compounds and methods of use thereof” (Alltech, Inc., priority 2014, dated 2017).
